Consider three proteins from paper PMC7049166 (Proceedings of the National Academy of Sciences of the …, 2020).

The data set “SEC-MALS” deals with the molecule itself. In words: SEC-MALS. (SEC sorts molecules by how far they enter the pores of the column.)
Data set [1] deals with the molecule itself. In words: cell-based or functional assay.
The data set “crystal structure” deals with the molecule itself. Description: crystal structure.
The data set “AUC” deals with the molecule itself. Description: AUC.
The data set “cross-linking” concerns the molecule itself. In words: cross-linking.

“And” between values parts separate entries of the source, which are not always exact repeats. Equal entries are not always repeated.

B1: S. cerevisiae short Mgm1 (s-Mgm1), truncated version, residues 184-881 (domain or fragment, UniProt P32266 184-881, looked up)
chain: MLNLTKQMIEIRTILNKVDSSSAHLTLPSIVVIGSQSSGKSSVLESIVGREFLPKGSNMVTRRPIELTLVNTPNSNNVTADFPSMRLYNIKDFKEVKRMLMELNMAVPTSEAVSEEPIQLTIKSSRVPDLSLVDLPGYIQVEAADQPIELKTKIRDLCEKYLTAPNIILAISAADVDLANSSALKASKAADPKGLRTIGVITKLDLVDPEKARSILNNKKYPLSMGYVGVITKTPSSINRKHLGLFGEAPSSSLSGIFSKGQHGQSSGEENTNGLKQIVSHQFEKAYFKENKKYFTNCQVSTKKLREKLIKILEISMSNALEPTSTLIQQELDDTSYLFKVEFNDRHLTPKSYLLNNIDVLKLGIKEFQEKFHRNELKSILRAELDQKVLDVLATRYWKDDNLQDLSSSKLESDTDMLYWHKKLELASSGLTKMGIGRLSTMLTTNAILKELDNILESTQLKNHELIKDLVSNTAINVLNSKYYSTADQVENCIKPFKYEIDLEERDWSLARQHSINLIKEELRQCNSRYQAIKNAVGSKKLANVMGYLENESNLQKETLGMSKLLLERGSEAIFLDKRCKVLSFRLKMLKNKCHSTIEKDRCPEVFLSAVSDKLTSTAVLFLNVELLSDFFYNFPIELDRRLTLLGDEQVEMFAKEDPKISRHIELQKRKELLELALEKIDSILVFKKSYKGVSKNL
What is called stoichiometry N is a count of units in the complex or per binding partner. Take B1: the “stoichiometry N” value in the data set “SEC-MALS” stood at 2; in the data set “crystal structure” it was 3. The “stimulation of s-Mgm1 GTPase activity by liposomes with 10% or 20% cardiolipin” value in data set [1] was found to be 8 fold.

B2: s-Mgm1 R712A/E751A mutant (domain or fragment, S. cerevisiae, UniProt P32266 184-881, looked up)
chain: MLNLTKQMIEIRTILNKVDSSSAHLTLPSIVVIGSQSSGKSSVLESIVGREFLPKGSNMVTRRPIELTLVNTPNSNNVTADFPSMRLYNIKDFKEVKRMLMELNMAVPTSEAVSEEPIQLTIKSSRVPDLSLVDLPGYIQVEAADQPIELKTKIRDLCEKYLTAPNIILAISAADVDLANSSALKASKAADPKGLRTIGVITKLDLVDPEKARSILNNKKYPLSMGYVGVITKTPSSINRKHLGLFGEAPSSSLSGIFSKGQHGQSSGEENTNGLKQIVSHQFEKAYFKENKKYFTNCQVSTKKLREKLIKILEISMSNALEPTSTLIQQELDDTSYLFKVEFNDRHLTPKSYLLNNIDVLKLGIKEFQEKFHRNELKSILRAELDQKVLDVLATRYWKDDNLQDLSSSKLESDTDMLYWHKKLELASSGLTKMGIGRLSTMLTTNAILKELDNILESTQLKNHELIKDLVSNTAINVLNSKYYSTADQVENCIKPFKYEIDLEERDWSLARQHSINLIKEELRQCNSAYQAIKNAVGSKKLANVMGYLENESNLQKETLGMSKLLLARGSEAIFLDKRCKVLSFRLKMLKNKCHSTIEKDRCPEVFLSAVSDKLTSTAVLFLNVELLSDFFYNFPIELDRRLTLLGDEQVEMFAKEDPKISRHIELQKRKELLELALEKIDSILVFKKSYKGVSKNL
On to B2, for which the binding result in “AUC” is “binds”.

B3: HA-tagged s-Mgm1 S397C/E751C mutant (with 4CS mutations C341S, C676S, C709S, C763S) (domain or fragment, S. cerevisiae, UniProt P32266 184-881, looked up)
chain: MLNLTKQMIEIRTILNKVDSSSAHLTLPSIVVIGSQSSGKSSVLESIVGREFLPKGSNMVTRRPIELTLVNTPNSNNVTADFPSMRLYNIKDFKEVKRMLMELNMAVPTSEAVSEEPIQLTIKSSRVPDLSLVDLPGYIQVEAADQPIELKTKIRDLSEKYLTAPNIILAISAADVDLANSSALKASKAADPKGLRTIGVITKLDLVDPEKARCILNNKKYPLSMGYVGVITKTPSSINRKHLGLFGEAPSSSLSGIFSKGQHGQSSGEENTNGLKQIVSHQFEKAYFKENKKYFTNCQVSTKKLREKLIKILEISMSNALEPTSTLIQQELDDTSYLFKVEFNDRHLTPKSYLLNNIDVLKLGIKEFQEKFHRNELKSILRAELDQKVLDVLATRYWKDDNLQDLSSSKLESDTDMLYWHKKLELASSGLTKMGIGRLSTMLTTNAILKELDNILESTQLKNHELIKDLVSNTAINVLNSKYYSTADQVENSIKPFKYEIDLEERDWSLARQHSINLIKEELRQSNSRYQAIKNAVGSKKLANVMGYLENESNLQKETLGMSKLLLCRGSEAIFLDKRSKVLSFRLKMLKNKCHSTIEKDRCPEVFLSAVSDKLTSTAVLFLNVELLSDFFYNFPIELDRRLTLLGDEQVEMFAKEDPKISRHIELQKRKELLELALEKIDSILVFKKSYKGVSKNL
As for B3, in the data set “cross-linking”, the “stoichiometry N” value is 2 and 3.
